The source of these data is publication PMC8906542.

What all share (test): fluorescence polarization
One data set deals with T1, ErmE K164M (Saccharopolyspora erythraea, UniProt P07287 1-381, K164M).
T1 sequence: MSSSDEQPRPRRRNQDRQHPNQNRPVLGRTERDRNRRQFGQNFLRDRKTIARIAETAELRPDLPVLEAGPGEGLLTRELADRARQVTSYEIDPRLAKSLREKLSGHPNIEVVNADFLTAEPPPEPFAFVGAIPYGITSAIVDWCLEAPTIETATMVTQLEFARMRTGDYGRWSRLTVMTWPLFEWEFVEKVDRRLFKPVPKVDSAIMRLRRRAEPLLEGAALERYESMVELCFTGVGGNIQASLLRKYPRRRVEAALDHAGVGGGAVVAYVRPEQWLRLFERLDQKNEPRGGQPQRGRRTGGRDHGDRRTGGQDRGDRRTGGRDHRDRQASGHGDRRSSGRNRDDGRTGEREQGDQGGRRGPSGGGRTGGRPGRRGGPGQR

A further data set concerns the target T2, ErmE K164S (Saccharopolyspora erythraea, UniProt P07287 1-381, K164S).
T2 sequence: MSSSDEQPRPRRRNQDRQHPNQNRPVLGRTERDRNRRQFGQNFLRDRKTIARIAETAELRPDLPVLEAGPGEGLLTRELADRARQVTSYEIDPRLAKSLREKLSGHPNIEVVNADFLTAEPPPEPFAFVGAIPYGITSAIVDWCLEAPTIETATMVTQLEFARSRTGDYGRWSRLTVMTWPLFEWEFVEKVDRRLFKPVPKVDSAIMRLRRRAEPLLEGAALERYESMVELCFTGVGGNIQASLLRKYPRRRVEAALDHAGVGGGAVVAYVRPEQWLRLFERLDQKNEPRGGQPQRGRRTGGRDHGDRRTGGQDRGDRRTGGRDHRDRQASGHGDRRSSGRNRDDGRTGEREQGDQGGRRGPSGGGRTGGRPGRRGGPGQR

Another data set addresses T3, ErmE R163E (Saccharopolyspora erythraea, UniProt P07287 1-381, R163E).
T3 sequence: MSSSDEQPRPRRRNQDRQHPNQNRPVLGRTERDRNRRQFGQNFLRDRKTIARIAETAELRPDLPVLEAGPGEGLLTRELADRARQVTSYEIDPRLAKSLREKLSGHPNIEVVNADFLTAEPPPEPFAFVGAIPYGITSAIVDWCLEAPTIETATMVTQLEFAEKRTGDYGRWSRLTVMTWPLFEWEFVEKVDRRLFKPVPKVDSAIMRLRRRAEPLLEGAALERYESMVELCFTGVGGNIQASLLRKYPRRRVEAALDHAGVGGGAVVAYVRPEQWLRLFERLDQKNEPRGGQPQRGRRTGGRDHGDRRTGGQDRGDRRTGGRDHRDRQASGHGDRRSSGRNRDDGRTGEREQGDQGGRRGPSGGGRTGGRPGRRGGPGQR

The target in a further data set is T4, ErmE R165A (Saccharopolyspora erythraea, UniProt P07287 1-381, R165A).
T4 sequence: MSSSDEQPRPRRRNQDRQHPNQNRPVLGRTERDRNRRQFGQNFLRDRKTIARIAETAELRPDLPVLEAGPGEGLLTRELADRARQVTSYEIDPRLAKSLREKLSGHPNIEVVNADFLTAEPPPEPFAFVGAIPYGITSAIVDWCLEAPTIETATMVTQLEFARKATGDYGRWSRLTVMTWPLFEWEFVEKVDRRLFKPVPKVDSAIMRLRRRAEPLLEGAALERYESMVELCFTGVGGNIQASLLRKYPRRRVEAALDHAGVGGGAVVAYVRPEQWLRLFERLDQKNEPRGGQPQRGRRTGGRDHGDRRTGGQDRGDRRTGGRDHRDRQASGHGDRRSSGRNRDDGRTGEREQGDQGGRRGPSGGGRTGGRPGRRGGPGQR

The next data set deals with T5, ErmE E160A (Saccharopolyspora erythraea, UniProt P07287 1-381, E160A).
T5 sequence: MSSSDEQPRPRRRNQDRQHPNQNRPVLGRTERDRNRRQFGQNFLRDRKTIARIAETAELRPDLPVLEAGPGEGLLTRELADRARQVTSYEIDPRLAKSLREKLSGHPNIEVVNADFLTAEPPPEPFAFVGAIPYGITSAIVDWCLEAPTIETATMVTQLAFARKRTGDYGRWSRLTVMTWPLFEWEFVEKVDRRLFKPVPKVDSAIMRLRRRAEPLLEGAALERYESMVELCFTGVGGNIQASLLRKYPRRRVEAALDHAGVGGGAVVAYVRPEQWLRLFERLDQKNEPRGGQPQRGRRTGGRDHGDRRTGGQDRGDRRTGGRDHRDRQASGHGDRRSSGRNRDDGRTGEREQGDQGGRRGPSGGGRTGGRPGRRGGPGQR

The target in another data set is T6, ErmE E160W (Saccharopolyspora erythraea, UniProt P07287 1-381, E160W).
T6 sequence: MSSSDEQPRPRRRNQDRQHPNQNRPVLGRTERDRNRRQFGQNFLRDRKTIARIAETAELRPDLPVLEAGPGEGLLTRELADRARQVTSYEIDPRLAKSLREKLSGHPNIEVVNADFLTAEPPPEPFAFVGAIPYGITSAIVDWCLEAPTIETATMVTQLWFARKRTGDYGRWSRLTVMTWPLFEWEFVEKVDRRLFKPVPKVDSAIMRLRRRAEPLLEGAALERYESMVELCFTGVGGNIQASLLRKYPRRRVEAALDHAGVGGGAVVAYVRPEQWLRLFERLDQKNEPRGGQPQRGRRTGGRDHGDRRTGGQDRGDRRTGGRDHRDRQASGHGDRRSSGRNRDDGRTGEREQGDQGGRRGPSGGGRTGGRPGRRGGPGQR

As a reminder, the Kd is the free concentration of one partner at which half of the binding sites on the other are occupied at equilibrium, for simple one-to-one binding. Higher therefore signals a looser complex. In the case of GGCCUGCGGCAAGACGGAAAGACCAUGGUCCCUAUCUGCCGCAGGAUC (structured_RNA) [V48 Erm substrate (23S rRNA helix 73 mimic, 48 nt)], the binding result in the data set with ErmE K164M, with ErmE K164S and in the data set with ErmE E160A was “binds” in each case. Also, the Kd with ErmE R163E was 3.7 µM; in the data set with ErmE R165A, 490 ± 50 nM. Moreover, in the data set with ErmE E160W, the binding signal is around 4 fold Kd increase vs wt.
